Here are results for 4 molecules from paper PMC10904395, “The Deinococcus protease PprI senses DNA damage by directly interacting with single-stranded DNA”.

For series [1], the target named is T1, DG-PprI (IrrE) (Deinococcus geothermalis, UniProt Q1J1D6 1-289).
T1 sequence: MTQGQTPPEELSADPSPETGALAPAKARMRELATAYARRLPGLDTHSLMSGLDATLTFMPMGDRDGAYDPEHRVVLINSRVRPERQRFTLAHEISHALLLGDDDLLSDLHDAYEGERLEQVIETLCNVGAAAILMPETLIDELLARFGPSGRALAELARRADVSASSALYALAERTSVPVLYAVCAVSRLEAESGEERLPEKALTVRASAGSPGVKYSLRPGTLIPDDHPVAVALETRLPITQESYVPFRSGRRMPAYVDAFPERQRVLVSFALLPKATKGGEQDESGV
Nature of the series: EMSA; 1 or 2 uM protein, 0.1 uM RNA; EMSA: 150 mM NaCl, 20 mM Tris-HCl pH 8.0, 0.1 mg/ml BSA, 0.1 uM FAM-labeled nucleic acid, 0/1/2 uM protein, room temperature 30 min, 10% native PAGE in 1x TB. The conditions noted are these: protein: recombinant; tags: tag removed; label: 5' FAM. Background: Mobility shift assays separate free from complexed probe on a gel.

The target of series [2] is T1, DG-PprI (IrrE). Nature of the series: EMSA; 1 or 2 uM protein, 0.1 uM DNA; EMSA: 150 mM NaCl, 20 mM Tris-HCl pH 8.0, 0.1 mg/ml BSA, 0.1 uM FAM-labeled nucleic acid, 0/1/2 uM protein, room temperature 30 min, 10% native PAGE in 1x TB. The conditions noted are these: protein: recombinant, tags: tag removed.
The target in series [3] is T1, DG-PprI (IrrE). Nature of the series: X-ray crystallography; Mn2+; 2.2 A; PprI dimer in asymmetric unit; EMSA: 150 mM NaCl, 20 mM Tris-HCl pH 8.0, 0.1 mg/ml BSA, 0.1 uM FAM-labeled nucleic acid, 0/1/2 uM protein, room temperature 30 min, 10% native PAGE in 1x TB. The conditions noted are these: protein: recombinant; tags: tag removed.

As to CGCUCUUCGCCAUUCUCUUGAAGUUUCAAACUUGG (ssRNA) [35nt RNA], the binding result in the series with DG-PprI (IrrE) [1] is given as “no binding”.
CGCTCTTCGCCATTCTCTTGAAGTTTCAAACTTGG (ssDNA) [35nt ssDNA]: the binding result with DG-PprI (IrrE) [2] (label: 5' FAM) is “binds”.

B1: 35 bp dsDNA (dsDNA)
DNA 1: CGCTCTTCGCCATTCTCTTGAAGTTTCAAACTTGG
DNA 2: CCAAGTTTGAAACTTCAAGAGAATGGCGAAGAGCG
Turning to B1, the binding result with DG-PprI (IrrE) [2] (label: 5' FAM on F strand, blunt) was “no binding”.
On to TCATGAGCAGTTTTTTTTTTTTTTTTTTT (ssDNA) [29nt ssDNA (co-crystal)], for which the binding result with DG-PprI (IrrE) [3] is “binds”.
